Experimental findings from PMC9398005, “A Drosophila Su(H) model of Adams-Oliver Syndrome reveals cofactor titration as a mechanism underlying developmental defects” (PLoS Genetics, 2021) are described below.

Common to all, as to details: both partners purified
The target of experiment [1] is T1, mouse Rbpj (53-474) K195E (mouse, UniProt P31266 53-474, K195E).
T1 construct: also called Rbpj K195E; K195E (analogous to human RBPJ K169E); source: E. coli BL21 Tuner, purified (ammonium sulfate, glutathione resin, PreScission cut, SP ion exchange)
T1 sequence (P31266 53-474 K195E): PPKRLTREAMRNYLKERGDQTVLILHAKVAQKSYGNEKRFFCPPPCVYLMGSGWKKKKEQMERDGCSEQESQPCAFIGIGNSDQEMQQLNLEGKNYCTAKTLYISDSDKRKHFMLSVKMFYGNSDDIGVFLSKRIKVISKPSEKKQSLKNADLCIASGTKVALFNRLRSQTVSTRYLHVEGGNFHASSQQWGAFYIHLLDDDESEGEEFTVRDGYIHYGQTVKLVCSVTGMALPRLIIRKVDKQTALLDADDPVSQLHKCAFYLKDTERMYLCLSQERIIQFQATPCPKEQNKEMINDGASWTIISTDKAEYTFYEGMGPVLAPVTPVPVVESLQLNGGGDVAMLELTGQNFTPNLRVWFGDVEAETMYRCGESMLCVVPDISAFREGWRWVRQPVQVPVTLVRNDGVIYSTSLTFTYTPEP
The experiment in a line: ITC; cofactor (RAM peptide, Hairless or SHARP) in the syringe, Su(H) or Rbpj in the cell; 50 mM sodium phosphate, 150 mM sodium chloride; 20 injections, triplicate, one site model; 25°C by the legend, 20°C by the methods.

In a further experiment the target is T2, mouse Rbpj (53-474) WT (mouse, UniProt P31266 53-474).
T2 construct: also called WT Rbpj; WT RBPJ; source: E. coli BL21 Tuner, purified (ammonium sulfate, glutathione resin, PreScission cut, SP ion exchange)
T2 sequence (P31266 53-474): as the sequence (P31266 53-474 K195E) above, with E143K counted along it
The description is as above.

Another experiment addresses T3, mouse Rbpj (53-474) E89G (mouse, UniProt P31266 53-474, E89G).
T3 construct: also called Rbpj E89G; E89G (analogous to human RBPJ E63G); source: E. coli BL21 Tuner, purified (ammonium sulfate, glutathione resin, PreScission cut, SP ion exchange)
Described as above.

Experiment [2] has as its target T4, mouse Rbpj K195E (53-474) (mouse, UniProt P31266 53-474, K195E).
T4 construct: also called analogous to human RBPJ K169E; source: E. coli BL21 Tuner, pGEX-6P1, purified (glutathione resin, PreScission cleavage, SP ion exchange)
In words: ITC; RAM peptide, Hairless or SHARP in the syringe, Su(H) or Rbpj in the cell; 50 mM sodium phosphate, 150 mM sodium chloride; 20 injections of 14 uL; triplicate; one site binding model; 20°C by the methods, 25°C by the legend of Fig 6. In general terms: ITC needs no label: the signal is the heat of the interaction.

A further experiment deals with T5, mouse Rbpj E89G (53-474) (mouse, UniProt P31266 53-474, E89G).
T5 construct: also called analogous to human RBPJ E63G; source: E. coli BL21 Tuner, pGEX-6P1, purified (glutathione resin, PreScission cleavage, SP ion exchange)
T5 sequence (P31266 53-474 E89G): as the sequence (P31266 53-474 K195E) above, with E37G, E143K counted along it
Described as above.

Another experiment has as its target T6, mouse Rbpj WT (53-474) (mouse, UniProt P31266 53-474).
T6 construct: also called CBF1; mouse CSL; source: E. coli BL21 Tuner, pGEX-6P1, purified (glutathione resin, PreScission cleavage, SP ion exchange)
Described as above.

T4 sequence (P31266 53-474 K195E): as the sequence (P31266 53-474 K195E) above
T6 sequence (P31266 53-474): as the sequence (P31266 53-474 K195E) above, with E143K counted along it
T3 sequence (P31266 53-474 E89G): as the sequence (P31266 53-474 K195E) above, with E37G, E143K counted along it

B1: Notch1 RAM peptide (human Notch1 residues 1754-1781) (peptide)
peptide: VLLSRKRRRQHGQLWFPEGFKVSEASKK
notes: Notch1 RAM domain; the methods give human Notch1 residues 1754-1781, the results and the legend call it the mouse RAM domain; Methods say human Notch1 residues, results say mouse; also called mouse Notch 1 RAM; mouse RAM domain from Notch1; source: synthetic peptide (Peptide2.0, 95% purity)
As to B1, the Kd (in experiment [1]; with mouse Rbpj (53-474) WT; with mouse Rbpj (53-474) E89G) was ~0.02 µM throughout.

B2: Notch1 RAM peptide (residues 1754-1781) (peptide)
peptide: VLLSRKRRRQHGQLWFPEGFKVSEASKK
notes: Notch1, RAM domain; also called mNotch1 RAM; mouse Notch 1 RAM; source: synthetic peptide (Peptide2.0, 95% purity)
As for B2, the Ka in experiment [2] amounted to 5.1e+07 M⁻¹; in the experiment with mouse Rbpj E89G (53-474) it was 5.6e+07 M⁻¹; in the experiment with mouse Rbpj WT (53-474), 4.8e+07 M⁻¹. In addition, the Kd (as a rule, the concentration at which binding is half-saturated) in experiment [2] was 0.0224 µM; in the experiment with mouse Rbpj E89G (53-474), 0.0199 µM; with mouse Rbpj WT (53-474), 0.0208 µM.

B3: SHARP residues 2776-2833 (domain or fragment, human, UniProt Q96T58 2776-2833, looked up)
chain: RASANENSRFHPGSMPVIDDRPADAGSGAGLRVNTSEGVVLLSYSGQKTEGPQRISAK
notes: called mouse SHARP in the results and the legend; also called mouse SHARP; mouse co-repressor SHARP; source: recombinant from pSMT3, purified as previously described
With B3, the values for the Kd (in experiment [1]; in the experiment with mouse Rbpj (53-474) WT; with mouse Rbpj (53-474) E89G) were 0.021 µM, ~0.005 µM and ~0.005 µM, respectively.

B4: SHARP residues 2776-2833 (domain or fragment, human, UniProt Q96T58 2776-2833, looked up)
chain: RASANENSRFHPGSMPVIDDRPADAGSGAGLRVNTSEGVVLLSYSGQKTEGPQRISAK
notes: the methods say human SHARP, the results and legend say mouse SHARP; species told as human in the methods and as mouse in the results and legend; also called mouse SHARP; source: bacterial recombinant, pSMT3, purified as previously described
As for B4, the Ka in experiment [2] stood at 5.8e+07 M⁻¹; with mouse Rbpj E89G (53-474) it was 2.9e+08 M⁻¹; with mouse Rbpj WT (53-474), 1.5e+09 M⁻¹. For the same molecule, the Kd is 0.0211 µM in experiment [2], 0.0052 µM with mouse Rbpj E89G (53-474) and 0.0035 µM with mouse Rbpj WT (53-474).
